B1: L-PpTA (Pseudomonas putida KT2440) (protein)
chain: MTDKSQQFASDNYSGICPEAWVAMEKANRGHDRAYGDDQWTERASEYFRNLFETDCEVFFAFNGTAANSLALASLCQSYHSVICSETAHVETDECGAPEFFSNGSKLLTAASVNGKLTPQSIREVALKRQDIHYPKPRVVTITQATEVGTVYRPDELKAISATCKELGLNLHMDGARFTNACAFLGCSPAELTWKAGVDVLCFGGTKNGMAVGEAILFFNRQLAEDFDYRCKQAGQLASKMRFLSAPWVGLLEDGAWLRHGNHANHCAQLLASLVSDLPGVELMFPVEANGVFLQMPEHAIEALRGKGWRFYTFIGSGGARFMCSWDTEEARVRELAADIRTIIGG
notes: E. coli BL21(DE3); HisTrap, Resource Q, Superdex 200

tested on: T1, NCC(=O)O; assay: purified protein; type: biochemical, Pseudomonas putida; conditions: glycine varied 2.5-50 mM, co-substrate 4-methylsulfonylbenzaldehyde, PLP, HEPES-NaOH pH 8.0, 30 °C
T1 construct: E. coli BL21(DE3); HisTrap, Resource Q, Superdex 200

First: L-PpTA (Pseudomonas putida KT2440; A9L)
Second: L-PpTA (Pseudomonas putida KT2440; H133Y)
The Km of the first is 1.5-fold lower: 14.6 mM for the first, 22.6 mM for the second.

“L-PpTA (Pseudomonas putida KT2440; Y13K)” and L-PpTA (Pseudomonas putida KT2440; A9V) are within 1.5-fold of each other in Km: 19.6 mM for the first, 13.8 mM for the second.

Compared with “L-PpTA (Pseudomonas putida KT2440; Y312E)”, “L-PpTA (Pseudomonas putida KT2440; H133N)” is 2-fold lower in Km: 25.3 mM for the first, 12.8 mM for the second.

First: L-PpTA (Pseudomonas putida KT2440; Y312R)
Second: L-PpTA (Pseudomonas putida KT2440; H133W)
The Km of the first is 1.6-fold higher: 20.1 mM for the first, 12.9 mM for the second.

Going from “L-PpTA (Pseudomonas putida KT2440; E147D)” to “L-PpTA (Pseudomonas putida KT2440; Y13C)”, the Km rises from 15.1 mM to 24.7 mM (1.6-fold).

First: L-PpTA (Pseudomonas putida KT2440; A9L)
Second: L-PpTA (Pseudomonas putida KT2440; H133Y)
The kcat of the first is 1.6-fold lower: 7.7 s⁻¹ for the first, 12.5 s⁻¹ for the second.

“L-PpTA (Pseudomonas putida KT2440; Y13K)” and L-PpTA (Pseudomonas putida KT2440; A9V) are within 1.5-fold of each other in kcat: 10.4 s⁻¹ for the first, 7.2 s⁻¹ for the second.

“L-PpTA (Pseudomonas putida KT2440; Y312E)” and “L-PpTA (Pseudomonas putida KT2440; H133N)” are within 1.5-fold of each other in kcat: 15.3 s⁻¹ for the first, 12.7 s⁻¹ for the second.

“L-PpTA (Pseudomonas putida KT2440; Y312R)” and “L-PpTA (Pseudomonas putida KT2440; H133W)” are within 1.5-fold of each other in kcat: 12.2 s⁻¹ for the first, 12.3 s⁻¹ for the second.

First: L-PpTA (Pseudomonas putida KT2440; E147D)
Second: L-PpTA (Pseudomonas putida KT2440; Y13C)
The kcat of the first is 2.1-fold lower: 6.5 s⁻¹ for the first, 13.9 s⁻¹ for the second.

L-PpTA (Pseudomonas putida KT2440; A9L) and “L-PpTA (Pseudomonas putida KT2440; H133Y)” are within 1.5-fold of each other in kcat/Km: 530 M⁻¹ s⁻¹ for the first, 550 M⁻¹ s⁻¹ for the second.

“L-PpTA (Pseudomonas putida KT2440; Y13K)” and L-PpTA (Pseudomonas putida KT2440; A9V) are within 1.5-fold of each other in kcat/Km: 530 M⁻¹ s⁻¹ for the first, 520 M⁻¹ s⁻¹ for the second.

Compared with “L-PpTA (Pseudomonas putida KT2440; Y312E)”, “L-PpTA (Pseudomonas putida KT2440; H133N)” is 1.6-fold higher in kcat/Km: 600 M⁻¹ s⁻¹ for the first, 990 M⁻¹ s⁻¹ for the second.

Compared with “L-PpTA (Pseudomonas putida KT2440; Y312R)”, “L-PpTA (Pseudomonas putida KT2440; H133W)” is 1.6-fold higher in kcat/Km: 610 M⁻¹ s⁻¹ for the first, 950 M⁻¹ s⁻¹ for the second.

“L-PpTA (Pseudomonas putida KT2440; E147D)” and “L-PpTA (Pseudomonas putida KT2440; Y13C)” are within 1.5-fold of each other in kcat/Km: 430 M⁻¹ s⁻¹ for the first, 560 M⁻¹ s⁻¹ for the second.

substrate: NCC(=O)O; assay: purified protein; type: biochemical, Pseudomonas putida; conditions: glycine varied 2.5-50 mM, co-substrate 4-methylsulfonylbenzaldehyde, PLP, HEPES-NaOH pH 8.0, 30 °C

In the case of B1, the Km is reported as 17.4 mM.

Molecule B1 has a kcat of 7.1 s⁻¹.

In the case of B1, the kcat/Km is reported as 410 M⁻¹ s⁻¹.

— paper PMC9922994, “Comprehensive screening strategy coupled with structure-guided engineering of L-threonine aldolase from Pseudomonas putida for enhanced catalytic efficiency towards L-threo-4-methylsulfonylphenylserine” (Frontiers in Bioengineering and Biotechnology, 2023)
